Assay results as given in article PMC3348108 (The Journal of Experimental Medicine, 2012).
Where no end group is shown, it is not given here.

B1: DBD–Ligase IV (amino acids 1–240) (domain or fragment)
chain: MAASQTSQTVASHVPFADLCSTLERIQKSKGRAEKIRHFREFLDSWRKFHDALHKNHKDVTDSFYPAMRLILPQLERERMAYGIKETMLAKLYIELLNLPRDGKDALKLLNYRTPTGTHGDAGDFAMIAYFVLKPRCLQKGSLTIQQVNDLLDSIASNNSAKRKDLIKKSLLQLITQSSALEQKWLIRMIIKDLKLGVSQQTIFSVFHNDAAELHNVTTDLEKVCRQLHDPSVGLSDISI

Columns and labels:
[1] = target: B1; test: fluorescence polarisation
GST–Artemis C terminus = GST–Artemis C terminus (human, UniProt Q96SD1 386-692); test: pull-down
Chain of GST–Artemis C terminus (Q96SD1 386-692): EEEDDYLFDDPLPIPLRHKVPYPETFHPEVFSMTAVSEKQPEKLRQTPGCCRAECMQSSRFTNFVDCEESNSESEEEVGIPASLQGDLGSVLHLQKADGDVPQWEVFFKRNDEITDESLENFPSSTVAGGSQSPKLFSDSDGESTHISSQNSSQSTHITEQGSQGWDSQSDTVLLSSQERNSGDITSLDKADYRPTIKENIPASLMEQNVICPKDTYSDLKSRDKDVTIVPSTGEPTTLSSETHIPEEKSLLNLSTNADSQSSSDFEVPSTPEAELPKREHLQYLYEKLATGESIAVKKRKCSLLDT

Binder: {FAM}-DVPQWEVFFKR [Ligase IV–interacting human Artemis peptide, WT]
- Kd [1]: ~2600 nM

Binder: B1
- binding result (GST–Artemis C terminus): binds
